In patent US20230242902A1, “A HIGHLY ERROR-PRONE […] R[…] FOR TARGETED CONTINUOUS EVOLUTION IN VIVO” (The Regents of the University of California, priority 2017, published 2023):
Residue numbers refer to the chain shown, from its start. Names may count otherwise.

B1: L640Y, I777A (protein)
chain: MDYKDKALNDLRNVYADFDSLPLDFRQILIKDRATLLQKEDVEKKILERQEDAKKYAEYLKQSEIPERISLPNIKRHKGVSISFEETSEDMVLEPRPFIFDGLNIRCFRRETIFSLKNKILNMVKESSSFKNVSRQSVSFMYFKIFNKGKVIASTKSVNIYEDKIDERLEDLCNNFDDVLKKIIDVTYGYESLFVSETYSYVIFYAKSIYFPQPRCVNNWGNNIPNILTFDSFKLFTANKNNVSCIKQCSRFLWQKDFNTLEEMIEYKNGNICIVTPQLHINDVRDIKSFNDIRLYSESPIKTFSVIDNTITYLFYFKEHLGVIFNITKSRHDRRVTKFSPLSKFSDVKNITVCFDIESYFDPEKESNQVNIPFICCASIIYNKVIGNIVDFEGRDCVAQMIEYVVDICGELNISSVELIAHNGGGYDFHYILSSMYNPAAIKNILIRNNSFISFNFAHDGVKFSVKDSYSFLLCSLANASKAFLNEETFKKTDFPHHDLKTADDLYKVYKEWSSVNTEINHVVEKEKLLITSEHIVNFTKNDKSKTLIEWSKDYCRNDVLVLSKVWLEFKNAVEDIFNCELVDQTMTLAGLSYKLFQANMPFDVELRHPNKEDYFNMREALIGGRCISVNGIYKDVLCYDVKSLYPASMAFYDQPYGSFKRVSSRPKDELGIYYVRVTPNRNNKSNFFPIRSHNKITYNNFEESTYIAWYTNVDIDIGLSEGHNIEYIPFDSYGNIGYSWSKKGKIFEKYIKDVLYKLKIKYEKQNNKVKRNVIKAIMNSLWGKFAQKWVNFEYFIKSEDDIDFESEEAYKIWDTDFMLIKKIKESTYSSKPIQNGVFTLSWARYHMKSIWDAGAKEGAECIYSDTDSIFVHKEHFKKNAKFMLNGLKVPIIGSEVGQLELECEFDKLLCAGKKQYMGFYTYFQDGKPCIKEKKRFKGIPSNYIIPELYAHLLSGADKEAKIQFLKFRREWGSVKGYIENKTVKAT
B2: I777K, F871Y (protein)
chain: B1 chain with Y640L, A777K, F871Y
B3: V774I, L900S (protein)
chain: B1 chain with Y640L, V774I, A777I, L900S
B4: I777K, F968C (protein)
chain: B1 chain with Y640L, A777K, F968C
B5: I777A, L909F (protein)
chain: B1 chain with Y640L, L909F
B6: I777K, L909F (protein)
chain: B1 chain with Y640L, A777K, L909F
B7: Y653L, I777K (protein)
chain: B1 chain with Y640L, Y653L, A777K
B8: I777K, K934W (protein)
chain: B1 chain with Y640L, A777K, K934W
B9: Y653L, I777A (protein)
chain: B1 chain with Y640L, Y653L
B10: I775A, L909F (protein)
chain: B1 chain with Y640L, I775A, A777I, L909F
B11: F652L, I775A (protein)
chain: B1 chain with Y640L, F652L, I775A, A777I
B12: I777A, K934W (protein)
chain: B1 chain with Y640L, K934W
B13: Y653L, I775A (protein)
chain: B1 chain with Y640L, Y653L, I775A, A777I
B14: I775A, K934W (protein)
chain: B1 chain with Y640L, I775A, A777I, K934W
B15: I775A, F968T (protein)
chain: B1 chain with Y640L, I775A, A777I, F968T
B16: I777K, W790L, K934W (protein)
chain: B1 chain with Y640L, A777K, W790L, K934W
B17: V774I, F871Y (protein)
chain: B1 chain with Y640L, V774I, A777I, F871Y
B18: I777K, V872I (protein)
chain: B1 chain with Y640L, A777K, V872I
B19: L645M, M779L (protein)
chain: B1 chain with Y640L, L645M, A777I, M779L
B20: I777A, V872I (protein)
chain: B1 chain with Y640L, V872I
B21: L645M, I777K (protein)
chain: B1 chain with Y640L, L645M, A777K
B22: M779L, K934W (protein)
chain: B1 chain with Y640L, A777I, M779L, K934W
B23: M779L, F968C (protein)
chain: B1 chain with Y640L, A777I, M779L, F968C
B24: V774I, F968C (protein)
chain: B1 chain with Y640L, V774I, A777I, F968C
B25: I777A, F871Y (protein)
chain: B1 chain with Y640L, F871Y
B26: I777A, L900S (protein)
chain: B1 chain with Y640L, L900S
B27: I777K, F968T (protein)
chain: B1 chain with Y640L, A777K, F968T
B28: I775A, L900S (protein)
chain: B1 chain with Y640L, I775A, A777I, L900S
B29: I775A, F871Y (protein)
chain: B1 chain with Y640L, I775A, A777I, F871Y

Tested on: p1-encoded leu2 (Q180*)
Assay: Large-scale p1 fluctuation tests of p1-encoded leu2 (Q180*), per-base substitution rate
Assay type: cell-based, S. cerevisiae
Conditions: per-base substitution rate, p1-encoded leu2 (Q180*), large-scale fluctuation test
Text: All three TP-DNAP1 libraries were screened through small scale p1 fluctuation tests in a metastable S. cerevisiae strain, OR-Y24. OR-Y24 contains w.t. p1 and recombinant p1 that lacks w.t. TP-DNAP1, and instead, encodes a standardized fluorescence reporter of p1 copy number (Table 1), and a disabled version of the LEU2 selection marker (leu2 (Q180*)). As described previously (Ravikumar et al., 2014), leu2 (Q180*) contains a C→T mutation at base 538 in LEU2 at a site permissive to all single point mutants that generate missense mutations. Reversion to functional LEU2 can be detected on medium lacking leucine.
Large-scale fluctuation tests of p1-encoded leu2 (Q180*) were performed to precisely determine per-base substitution rates for individually cloned or isolated TP-DNAP1 variants. Large-scale p1 fluctuation tests are performed similarly to small-scale p1 fluctuation tests, with several modifications. First, large-scale p1 fluctuation tests were typically performed with 36-48 replicates. For highly error-prone TP-DNAP1s obtained from later rounds of screening, fewer replicates (3-16) were used, which is sufficient for similar precision (Foster et al., 2006). Second, p1 copy number was determined by the flow cytometry method, described below. Third, cell titers were measured for each fluctuation test to estimate the average number of cells per culture. Cell resuspensions were diluted and plated on solid SC-UH medium, and colony counts were determined after incubation at 30° C. for 2-3 days. Alternatively, cell resuspensions were diluted and subject to an event-count measurement via flow cytometry. Fourth, inoculums of highly error-prone TP-DNAP 1 s occasionally contained pre-existing mutants, despite the 1:10,000 dilution, so mutant frequencies were estimated by plating pre-cultures on solid SC-UHLW, pH 5.8 medium. Plates were incubated for 2-3 days, in parallel with cultures grown for fluctuation tests. Pre-culture mutant titers were counted to estimate the number of replicates in the fluctuation test expected to contain pre-existing mutants (n). Revertants were counted from all replicates of the fluctuation tests, counts were sorted, and n replicates with the highest counts were omitted from calculations.
To calculate per-base substitution rates, fluctuation data were analyzed by the maximum likelihood method, implemented using newton.LD.plating in rSalvador 1.7 (Zheng, 2017). Phenotypic mutation rates were calculated by normalizing to the average number of cells per culture. Phenotypic mutation rates were divided by the measured p1 copy number and by the number of ways leu2 (Q180*) can revert to LEU2 (2.33 for the ochre codon) to yield per-base substitution rates. 95% confidence intervals were similarly scaled by these factors. All data related to large-scale p1 fluctuation tests are fully described in Table 2.

| Molecule | Mutation rate (s.p.b.) |
| --- | --- |
| B1 | 5.70 × 10^−8 s.p.b. |
| B2 | 1.35 × 10^−6 s.p.b. |
| B3 | 1.10 × 10^−7 s.p.b. |
| B4 | 6.67 × 10^−7 s.p.b. |
| B5 | 1.07 × 10^−7 s.p.b. |
| B6 | 2.22 × 10^−7 s.p.b. |
| B7 | 9.59 × 10^−8 s.p.b. |
| B8 | 2.71 × 10^−7 s.p.b. |
| B9 | 2.02 × 10^−8 s.p.b. |
| B10 | 2.46 × 10^−8 s.p.b. |
| B11 | 6.08 × 10^−9 s.p.b. |
| B12 | 1.86 × 10^−7 s.p.b. |
| B13 | 9.70 × 10^−9 s.p.b. |
| B14 | 3.59 × 10^−8 s.p.b. |
| B15 | 7.29 × 10^−8 s.p.b. |
| B16 | 2.02 × 10^−7 s.p.b. |
| B17 | 1.64 × 10^−7 s.p.b. |
| B18 | 2.59 × 10^−8 s.p.b. |
| B19 | 4.99 × 10^−9 s.p.b. |
| B20 | 1.34 × 10^−10 s.p.b. |
| B21 | 9.19 × 10^−9 s.p.b. |
| B22 | 2.85 × 10^−9 s.p.b. |
| B23 | 3.13 × 10^−10 s.p.b. |
| B24 | 1.14 × 10^−7 s.p.b. |
| B25 | 2.57 × 10^−7 s.p.b. |
| B26 | 1.36 × 10^−7 s.p.b. |
| B27 | 3.19 × 10^−7 s.p.b. |
| B28 | 2.53 × 10^−8 s.p.b. |
| B29 | 4.73 × 10^−8 s.p.b. |
